Data set [1] in a line: Intranasal bioavailability of oxycodone conjugates in rats. The note with it: for AUC % (Intranasal Bioavailability): reference = 100.
Data set [2] can be described thus: Oral bioavailability / oral pharmacokinetics of oxycodone conjugates in rats. The note with it: for AUC % (Oral Bioavailability): reference = 100.
The nature of data set [3]: Intravenous bioavailability of oxycodone conjugates in rats.
The conditions of data set [4]: background statement; cited from earlier work.
The mark [5] stands for this setting: relative to OXY = 100, n = 4 animals, analysis by LC-MS.

For `COc1ccc2c3c1O[C@H]1C(OC(=O)[C@@H](NC(=O)[C@H](CC(=O)O)NC(=O)[C@@H](N)CCC(=O)O)C(C)C)=CC[C@@]4(OC(=O)[C@@H](NC(=O)[C@H](CC(=O)O)NC(=O)[C@@H](N)CCC(=O)O)C(C)C)[C@@H](C2)N(C)CC[C@]314` [(EDV)2-OC, [Glu-Asp-Val]2-OC], the “AUC % (Intranasal Bioavailability)” value in data set [1] is 20%. Moreover, the “AUC % (Oral Bioavailability)” value in data set [2] came to 73%.
In the case of `COc1ccc2c3c1O[C@H]1C(OC(=O)[C@@H](NC(=O)CNC(=O)[C@@H](N)CO)C(C)C)=CC[C@@]4(OC(=O)[C@@H](NC(=O)CNC(=O)[C@@H](N)CO)C(C)C)[C@@H](C2)N(C)CC[C@]314` [(SGV)2-OC, [Ser-Gly-Val]2-OC], the “AUC % (Intravenous Bioavailability)” value in data set [3] (reference = 100) is on record as 52%. Besides, the “AUC % (Intranasal Bioavailability)” value in data set [1] was found to be 64%. In addition, the “AUC % (Oral Bioavailability)” value in data set [2] turned out to be 103%.
Consider `COc1ccc2c3c1O[C@H]1C(OC(=O)[C@@H](NC(=O)[C@H](CCC(=O)O)NC(=O)[C@@H](N)C(C)C)C(C)C)=CC[C@@]4(OC(=O)[C@@H](NC(=O)[C@H](CCC(=O)O)NC(=O)[C@@H](N)C(C)C)C(C)C)[C@@H](C2)N(C)CC[C@]314` [(VEV)2-OC, [Val-Glu-Val]2-OC], for which the “AUC % (Intranasal Bioavailability)” value in data set [1] amounted to 39%. Besides, in data set [2], the “AUC % (Oral Bioavailability)” value amounted to 104%.
Take `COc1ccc2c3c1O[C@H]1C(OC(=O)[C@@H](NC(=O)[C@H](C)NC(=O)[C@H](C)N)C(C)C)=CC[C@@]4(O)[C@@H](C2)N(C)CC[C@]314` [Ala-Ala-Val-OC]: in data set [2] (setting [5]), the “Oral (% AUC)” value was 85 % AUC.
On the same count and under the same terms, the figure for `COc1ccc2c3c1O[C@H]1C(OC(=O)[C@@H](NC(=O)[C@H](CC(=O)O)NC(=O)[C@@H](N)CC(=O)O)C(C)C)=CC[C@@]4(O)[C@@H](C2)N(C)CC[C@]314` [Asp-Asp-Val-OC] is 40 % AUC.
Still for that read-out and setting: for `CC[C@H](C)[C@H](NC(=O)[C@H](CCC(=O)O)NC(=O)[C@@H](N)CCC(=O)O)C(=O)OC1=CC[C@@]2(O)[C@H]3Cc4ccc(OC)c5c4[C@@]2(CCN3C)[C@H]1O5` [Glu-Glu-Ile-OC] the value was 179 % AUC; for `COc1ccc2c3c1O[C@H]1C(OC(=O)[C@H](CC(C)C)NC(=O)[C@H](CCC(=O)O)NC(=O)[C@@H](N)CCC(=O)O)=CC[C@@]4(O)[C@@H](C2)N(C)CC[C@]314` [Glu-Glu-Leu-OC], 80 % AUC; for `COc1ccc2c3c1O[C@H]1C(OC(=O)[C@H](Cc4ccccc4)NC(=O)[C@H](CCC(=O)O)NC(=O)[C@@H](N)CCC(=O)O)=CC[C@@]4(O)[C@@H](C2)N(C)CC[C@]314` [Glu-Glu-Phe-OC], 49 % AUC.
On the same count and under the same terms, for `COc1ccc2c3c1O[C@H]1C(OC(=O)[C@@H]4CCCN4C(=O)[C@H](CCC(=O)O)NC(=O)[C@@H](N)CCC(=O)O)=CC[C@@]4(O)[C@@H](C2)N(C)CC[C@]314` [Glu-Glu-Pro-OC] the value was 71 % AUC; for `COc1ccc2c3c1O[C@H]1C(OC(=O)[C@@H](NC(=O)[C@H](CCC(=O)O)NC(=O)[C@@H](N)CCC(=O)O)C(C)C)=CC[C@@]4(O)[C@@H](C2)N(C)CC[C@]314` [Glu-Glu-Val-OC], 55 % AUC.
Take `CC[C@H](C)[C@H](NC(=O)CNC(=O)CN)C(=O)OC1=CC[C@@]2(O)[C@H]3Cc4ccc(OC)c5c4[C@@]2(CCN3C)[C@H]1O5` [Gly-Gly-Ile-OC]: the “Oral (% AUC)” value in data set [2] (relative to OXY = 100, dosed at 40% higher levels than calculated, n = 4 animals, LC-MS) is reported as 224 % AUC.
On to `COc1ccc2c3c1O[C@H]1C(OC(=O)[C@H](Cc4ccccc4)NC(=O)CNC(=O)CN)=CC[C@@]4(O)[C@@H](C2)N(C)CC[C@]314` [Gly-Gly-Phe-OC], for which the “Oral (% AUC)” value in data set [2] (setting [5]) was 163 % AUC.
Same read-out and setting: the figure for `COc1ccc2c3c1O[C@H]1C(OC(=O)[C@@H](NC(=O)CNC(=O)CN)C(C)C)=CC[C@@]4(O)[C@@H](C2)N(C)CC[C@]314` [Gly-Gly-Val-OC] is 123 % AUC.
The same measure, in the same setting: for `CC[C@H](C)[C@H](N)C(=O)N[C@H](C(=O)N[C@H](C(=O)OC1=CC[C@@]2(O)[C@H]3Cc4ccc(OC)c5c4[C@@]2(CCN3C)[C@H]1O5)[C@@H](C)CC)[C@@H](C)CC` [Ile-Ile-Ile-OC] the value was 83 % AUC; for `COc1ccc2c3c1O[C@H]1C(OC(=O)[C@@H](NC(=O)[C@H](CC(C)C)NC(=O)[C@@H](N)CC(C)C)C(C)C)=CC[C@@]4(O)[C@@H](C2)N(C)CC[C@]314` [Leu-Leu-Val-OC], 81 % AUC.
Same read-out and setting: for `CC[C@H](C)[C@H](NC(=O)[C@H](CCCCN)NC(=O)[C@@H](N)CCCCN)C(=O)OC1=CC[C@@]2(O)[C@H]3Cc4ccc(OC)c5c4[C@@]2(CCN3C)[C@H]1O5` [Lys-Lys-Ile-OC] the value was 74 % AUC.
`COc1ccc2c3c1O[C@H]1C(OC(=O)[C@H](CC(C)C)NC(=O)[C@H](CCCCN)NC(=O)[C@@H](N)CCCCN)=CC[C@@]4(O)[C@@H](C2)N(C)CC[C@]314` [Lys-Lys-Leu-OC]: the “Oral (% AUC)” value in data set [2] (setting [5]) came out at 46 % AUC.
The same measure, in the same setting: the figure for `COc1ccc2c3c1O[C@H]1C(OC(=O)[C@H](Cc4ccccc4)NC(=O)[C@H](CCCCN)NC(=O)[C@@H](N)CCCCN)=CC[C@@]4(O)[C@@H](C2)N(C)CC[C@]314` [Lys-Lys-Phe-OC] is 37 % AUC.
The same measure, in the same setting: the figure for `COc1ccc2c3c1O[C@H]1C(OC(=O)[C@@H](NC(=O)[C@H](CCCCN)NC(=O)[C@@H](N)CCCCN)C(C)C)=CC[C@@]4(O)[C@@H](C2)N(C)CC[C@]314` [Lys-Lys-Val-OC] is 108 % AUC.
Consider `COc1ccc2c3c1O[C@H]1C(=O)CC[C@@]4(O)[C@@H](C2)N(C)CC[C@]314` [OXY, oxycodone], for which, in data set [4], the Therapeutic plasma concentration was 10 to 100 ng/mL and the toxic plasma concentration entry is recorded as “greater than 200 ng/mL”. In addition, the “AUC % (Oral Bioavailability)” value in data set [2] is recorded as 100%. In data set [2] (setting [5]), the “Oral (% AUC)” value was determined as 100 % AUC.
Regarding `COc1ccc2c3c1O[C@H]1C(OC(=O)[C@H](CC(C)C)NC(=O)[C@@H]4CCCN4C(=O)[C@@H]4CCCN4)=CC[C@@]4(OC(=O)[C@H](CC(C)C)NC(=O)[C@@H]5CCCN5C(=O)[C@@H]5CCCN5)[C@@H](C2)N(C)CC[C@]314` [[PPL]2-OC, [Pro-Pro-Leu]2-OC], the “bioavailability by the intravenous route” value in data set [3] (versus oxycodone) was “substantially decreased”. Further, in data set [1] (versus oxycodone), the “bioavailability by the intranasal route” value is “substantially decreased”.
As for OC-Succcinate, in data set [2] (setting [5]), the “Oral (% AUC)” value turned out to be 79 % AUC.
Turning to Phe-Phe-Ile-OC, the “Oral (% AUC)” value in data set [2] (setting [5]) worked out at 59 % AUC.
Regarding Phe-Phe-Val-OC, in data set [2] (setting [5]), the “Oral (% AUC)” value stood at 32 % AUC.
Consider Pro-Pro-Ile-OC, for which, in data set [2], the “AUC % (Oral Bioavailability)” value stood at 85%. Besides, the “Oral (% AUC)” value in data set [2] (setting [5]) is on record as 85 % AUC.
The corresponding values for Pro-Pro-Val-OC are 152% and 152 % AUC.
As to Tyr-Tyr-Ile-OC, the “Oral (% AUC)” value in data set [2] (setting [5]) was 85 % AUC.
As for Tyr-Tyr-Phe-OC, in data set [2] (setting [5]), the “Oral (% AUC)” value is 73 % AUC.
In the case of Tyr-Tyr-Pro-OC, the “Oral (% AUC)” value in data set [2] (setting [5]) came to 59 % AUC.
In the case of Tyr-Tyr-Val-OC, the “AUC % (Oral Bioavailability)” value in data set [2] turned out to be 124%. The “Oral (% AUC)” value in data set [2] (setting [5]) came out at 124 % AUC.
Take Val-Val-Phe-OC: in data set [2] (setting [5]), the “Oral (% AUC)” value came to 120 % AUC.

The record behind these values is patent publication US20110040072A1, “MONO AND DI-SUBSTITUTED OXYCODONE COMPOUNDS AND COMPOSITIONS” (SHIRE LLC, priority 2006, published 2011).
